Publication PMC11727070, “Structure of the WIPI3/ATG16L1 Complex Reveals the Molecular Basis for the Recruitment of the ATG12~ATG5-ATG16L1 Complex by WIPI3” (Cells, 2024)

Target: T1, GST-tagged WIPI3Δ (human, UniProt Q5MNZ6 8-344, without residues 264–281)
T1 construct: WIPI3, human, residues 8–344 with residues 264–281 removed; also called GST-WIPI3Δ; source: E. coli BL21 (DE3), purified (Ni-NTA, Superdex 200); not shown: GST, N-terminal, kept
Assay: SEC; competition: a pre-formed complex incubated with an increasing molar ratio of the competitor, then SEC; fractions analysed by SDS-PAGE with Coomassie staining
Settings: both partners purified

T1 sequence (Q5MNZ6 other isoform, or with tags, fused parts or gaps without residues 264–281 | without residues 264–281 | mutant): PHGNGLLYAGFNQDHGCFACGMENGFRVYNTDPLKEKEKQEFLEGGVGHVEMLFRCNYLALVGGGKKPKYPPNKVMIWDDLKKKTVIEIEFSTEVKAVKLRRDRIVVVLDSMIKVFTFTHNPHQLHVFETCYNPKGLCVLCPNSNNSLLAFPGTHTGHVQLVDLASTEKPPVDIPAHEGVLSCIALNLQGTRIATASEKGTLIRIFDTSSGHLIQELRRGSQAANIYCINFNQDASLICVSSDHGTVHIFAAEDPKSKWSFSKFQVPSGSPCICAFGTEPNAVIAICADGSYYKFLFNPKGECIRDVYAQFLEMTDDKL

Binder | binding result
ATG16L1(78–206) (domain or fragment, human, UniProt Q676U5 78-206, looked up, Legends name it without Trx; source: E. coli BL21 (DE3), purified (Ni-NTA, Superdex 200)) NDNQLQEMAQLRIKHQEELTELHKKRGELAQLVIDLNNQMQRKDREMQMNEAKIAECLQTISDLETECLDLRTKLCDLERANQTLKDEYDALQITFTALEGKLRKTTEENQELVTRWMAEKAQEANRLN | binds

Target: T2, SUMO-tagged WIPI3^Δ (human WIPI3 residues 8–344 without residues 264–281) (human, UniProt Q5MNZ6 8-344, without residues 264–281)
T2 construct: WIPI3, human, residues 8–344 with residues 264–281 removed; the WIPI3(75–80) region is retained; also called SUMO-WIPI3^Δ; loop-truncated WIPI3; source: E. coli BL21 (DE3), purified (Ni-NTA, Superdex 200); not shown: SUMO, N-terminal, kept
Assay: SEC; purified proteins alone and mixed, Superdex 200 Increase 10/300 GL or Superdex 75 10/300 GL on an AKTA FPLC; mixture profile compared with the theoretical sum; fractions checked by SDS-PAGE
Settings: both partners purified

T2 sequence (Q5MNZ6 other isoform, or with tags, fused parts or gaps without residues 264–281 | without residues 264–281 | mutant): as the sequence (Q5MNZ6 other isoform, or with tags, fused parts or gaps without residues 264–281 | without residues 264–281 | mutant) above

Binder | binding result
ATG16L1(78–197) (domain or fragment, human, UniProt Q676U5 78-197, looked up, source: E. coli BL21 (DE3), purified (Ni-NTA, Superdex 200)) NDNQLQEMAQLRIKHQEELTELHKKRGELAQLVIDLNNQMQRKDREMQMNEAKIAECLQTISDLETECLDLRTKLCDLERANQTLKDEYDALQITFTALEGKLRKTTEENQELVTRWMAE | binds
ATG16L1(124–188) (domain or fragment, human, UniProt Q676U5 124-188, looked up, Parallel coiled-coil dimer in the crystal; also called ATG16L1 coiled-coil; source: E. coli BL21 (DE3), purified (Ni-NTA, Superdex 200)) MQMNEAKIAECLQTISDLETECLDLRTKLCDLERANQTLKDEYDALQITFTALEGKLRKTTEENQ | binds
ATG16L1(124–197) (domain or fragment, human, UniProt Q676U5 124-197, looked up, source: E. coli BL21 (DE3), purified (Ni-NTA, Superdex 200)) MQMNEAKIAECLQTISDLETECLDLRTKLCDLERANQTLKDEYDALQITFTALEGKLRKTTEENQELVTRWMAE | binds
ATG16L1(78–247) (domain or fragment, human, UniProt Q676U5 78-247, looked up, Legends name it without Trx (while ATG2A is named Trx-ATG2A), so the tag may have been cleaved; also called central region of ATG16L1; source: E. coli BL21 (DE3), purified (Ni-NTA, Superdex 200)) NDNQLQEMAQLRIKHQEELTELHKKRGELAQLVIDLNNQMQRKDREMQMNEAKIAECLQTISDLETECLDLRTKLCDLERANQTLKDEYDALQITFTALEGKLRKTTEENQELVTRWMAEKAQEANRLNAENEKDSRRRQARLQKELAEAAKEPLPVEQDDDIEVIVDET | binds
ATG16L1(78–206) (domain or fragment, human, UniProt Q676U5 78-206, looked up, Legends name it without Trx; source: E. coli BL21 (DE3), purified (Ni-NTA, Superdex 200)) NDNQLQEMAQLRIKHQEELTELHKKRGELAQLVIDLNNQMQRKDREMQMNEAKIAECLQTISDLETECLDLRTKLCDLERANQTLKDEYDALQITFTALEGKLRKTTEENQELVTRWMAEKAQEANRLN | binds
